{"source": "the supplement of paper PMC9170038"}
{"test_system": "MS2 coat protein", "test": "apparent KD of MS2 coat protein; higher = weaker reporter binding", "details": "Eterna round: R107; input ligand: theophylline 2 mM", "how_it_was_run": "(§1)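 Values are apparent KD, taken as the median for each design of fits to normalised binding curves from individual clusters. The designed RNA switches were transcribed on-chip from Illumina sequencing clusters and exposed to SNAP-549-labelled MS2 coat protein at twofold increasing amounts from 0.7 or 1.5 nM to 3 µM. Titration used 100 mM Tris-HCl pH 7.5, 80 mM KCl and 4 mM MgCl2, without or with constant ligand.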", "units": {"apparent KD of MS2 coat protein": "µM"}}
{"sequence": "UUUGAGAUAACAGAUACCAGCGUGUUAUAAAACAUGAGGAUCACCCAUGUAGUGAUCAAGCGCCCUUGGCAGCUGGUGUUUUAGG [7.H]", "apparent KD of MS2 coat protein": 0.469}
{"sequence": "UGGGUAGCAUAGCUUGAUAGCUACACUGAAGGAGCGAGGAUAACCUCAGGUAGGUCGCAGACAUGAGGAUCACCCAUGUAGAUGG [Same State Arginine A GF18]", "apparent KD of MS2 coat protein": 0.231}
{"sequence": "AACAUGAGGAUCACCCAUGUCUGAACUGAAGGAGCGCUAAACAAGGCAGGUAGGUCGCGGAAUUUUGUGUGCAUAUGCAUAUGGG [9.J]", "apparent KD of MS2 coat protein": 0.0296}
{"sequence": "CCGGCCAAUUAGAAAUUAAUUGGCCGGAAACGAGGACCGGUACGGCCGCCACUCGUGGCGGGAGAAACAUGAGGAUCACCCAUGU", "apparent KD of MS2 coat protein": 0.053}
{"sequence": "UACAUGAGGAUCACCCAUGUAUUGCCGGUACGAGGACCGGUACGGCCGCCACUCGGAGCAUGAGGAUCACCCAUGUGCUGCUAUG [Same State Trypophan A GF 24]", "apparent KD of MS2 coat protein": 0.0837}
{"sequence": "GACAUGAGGAUCACCCAUGUACCGCGAGAAGGAGCGCGGAUAAACGCAGGUAGGUCGCUCGUGGGCUUGUAUUCAAUCGUAAGCU [Anlaaranan]", "apparent KD of MS2 coat protein": 0.207}
{"test_system": "MS2 coat protein", "test": "apparent KD of MS2 coat protein; higher = weaker reporter binding", "details": "Eterna round: R107; input ligand: tryptophan 2.4 mM", "how_it_was_run": "as §1", "units": {"apparent KD of MS2 coat protein": "µM"}}
{"sequence": "UGACGAUACCUGGAUACCAGCGACAUGAGGAUCACCCAUGUAUGAGGAUCAGCCAUGUUAUGCCCUUGGCAGCCACGAAGGUCUU [CSCMULLIN]", "apparent KD of MS2 coat protein": 0.0331}
{"sequence": "UACAUGAGGAUCACCCAUGUAUAGAGGGAUACCAGUGUCAGUGAGCACCCUUGGCAGCCCGCGAACAAUGGGUGCGCUAUAUAGU [#20 Exclusion-TheophyllineA]", "apparent KD of MS2 coat protein": 0.028}
{"sequence": "AAUCGUAAGGCGGCCGCCACUACACAUGAGGAUCACCCAUGUCUCGCGGGCUUGCGUUGGGAUAGUAGGACCGGGCCAGUAAUAA [Exclusion - Tryptophan B (Freestyle 13)]", "apparent KD of MS2 coat protein": 0.0251}
{"sequence": "GUAGCUGAGUGUGAUACCAGAAACGACGUCCUUUAUCAUAACAUGAGGAUCACCCAUGUCUUCCCUUGGCAGCACUUUUCGGUCU [theeternabot_exclusion_MS2_Theo_B_24]", "apparent KD of MS2 coat protein": 0.0347}
{"sequence": "ACAUGAGGCUCACCCAUGUGUAGUGGGUGGCGAGGACCGGUACGGCCGCCACUCGGCAACAUGAGGAUCACCCAUGUAAGGCCCU [RNA Blob]", "apparent KD of MS2 coat protein": 0.035}
{"sequence": "AUCGUACCUGAUGAUACCAGCAAGUGAUCAUAACAUGAGGAUCACCCAUGUAAUCAGUGAUGCCCUUGGCAGCAUAAUCGAUACA [Same State - Theophylline B (Freestyle 4)]", "apparent KD of MS2 coat protein": 0.164}
{"sequence": "GGCCGGUGCGCUUUGAAGCGACGGCGUGAUACCAGAUGUAAGAGCGUCCCUUGGCAGCACGUUUACAUGAGGAUCACCCAUGUCU [Zaveusxe]", "apparent KD of MS2 coat protein": 0.22}
{"sequence": "UAGGUGAUCUUCAACGGAAAACGUUGUGAUACCAGCCAACAAUACGGCCCUUGGCAGCACAUGAGGAUCACCCAUGUGUACACCG [Vetizaatdi]", "apparent KD of MS2 coat protein": 0.0306}
{"sequence": "UGUAACAUGAGGAUCACCCAUGUGAGUGAUACCAGAUUAGUAGUAGUCCCUUGGCAGCAUAUUGGGCGAGUGUAUAGUCUAUGCG [Same State - Theophylline A (Freestyle 10)]", "apparent KD of MS2 coat protein": 0.205}
{"sequence": "ACAUGAGGAUCACCCAUGUAGUGGCACGAUACCAGCUGAUCCCGUGGCCCUUGGCAGCGUCCGGUGUGGUGCGCCGGGAUGGAGC [ZSZMULLIN]", "apparent KD of MS2 coat protein": 0.0356}
{"sequence": "GCACAUGAGGAUCACCCAUGUACAACUGAAGGAGCGAGACAGAACUCAGGUAGGUCGCAGAAUGCACAAUAGCAUACGACAUGGG [Exclusion Arginine A GF20]", "apparent KD of MS2 coat protein": 0.0242}
{"sequence": "GCCUGGGAUACGGCCGCCACUACAUGAGGAUCACCCAUGUAAUAUUUAUUAGAAGAGAGGGUAUGUAGGACCGGGUAAGGAAGGC [e-trypB-0]", "apparent KD of MS2 coat protein": 0.026}
{"sequence": "CUUCUGAAAGCAAUGGGAUCUGUUAUUGAUACCAGCAUCUGAUUUUGCCCUUGGCAGCAAGAAACAUGAGGAUCACCCAUGUGGC [theeternabot_exclusion_MS2_Theo_A_19]", "apparent KD of MS2 coat protein": 0.021}
{"sequence": "ACAUGAGGAUCACCCAUGUUUGAUGUUCCUCGAGGACCGGUACGGCCGCCACUCGAACGAGUGGCACGCGAGUGCGCACUCGCGU [aTa]", "apparent KD of MS2 coat protein": 0.0136}
{"sequence": "GCACCAGGUACGGAUACCAGACUCUGCCGAUUGGGUGAACAUGAGGAUCACCCAUGUUAGGUCCCUUGGCAGCCGUACCUGGUGC [#18 Exclusion-TheophyllineB]", "apparent KD of MS2 coat protein": 0.0303}
{"sequence": "AGGUAUGAUCCGGAUACCAGCGAACAUGAGGAUCACCCAUGUGACCUGAGAUAGGCUCUACGCCCUUGGCAGCCGCGAUCGCAGA [Same State Theophylline B GF11]", "apparent KD of MS2 coat protein": 0.0125}
{"sequence": "UUUUAGCAUCGAAGGAGCGCUGGUAGGUGACACAUGAGGAUCACCCAUGUGCUCCUUGCCGAGCAGGUAGGUCGCGAUGCUAUUU [SSAB NP+V+V2 #8]", "apparent KD of MS2 coat protein": 0.0462}
{"sequence": "GCCGGGCCCUCGGCCGCCACUGAGAGAGUCGUGUGAACAUGAGGAUCACCCAUGUAAUAUAUAUACAGGACCGGGAGGGCCCGGC [4.W]", "apparent KD of MS2 coat protein": 0.0119}
{"sequence": "AGACGAGAAGAGGUUUACCCAUGUACAGAAGGAGCGUCGUUGACGACAGGUAGGUCGCUGGAAACAUGAGGAUCACCCAUGUUGA [#06 Exclusion - Arginine A]", "apparent KD of MS2 coat protein": 0.0483}
{"sequence": "AAGGUGAUCCCAGAUACCAGCUCAACAUGAGGAUCACCCAUGUACGGGACGAAAGUCCCGGGCCCUUGGCAGCUGGGUUGCCAAG [SSTheo B #19]", "apparent KD of MS2 coat protein": 0.185}
{"sequence": "UUGUGGCGCUCGGCCGCCACUCCGACAUGAGGAUCACCCAUGUUCUACAUGAGGAUCACCCAUGUGAGGACCGGGAGACACAACC [Exclusion Tryptophan B GF12]", "apparent KD of MS2 coat protein": 0.165}
{"sequence": "UUUGAGAUAACAGAUACCAGCGUGUUAUAAAACAUGAGGAUCACCCAUGUAGUGAUCAAGCGCCCUUGGCAGCUGGUGUUUUAGG [7.H]", "apparent KD of MS2 coat protein": 0.141}
{"sequence": "UGGGUAGCAUAGCUUGAUAGCUACACUGAAGGAGCGAGGAUAACCUCAGGUAGGUCGCAGACAUGAGGAUCACCCAUGUAGAUGG [Same State Arginine A GF18]", "apparent KD of MS2 coat protein": 0.276}
{"sequence": "AACAUGAGGAUCACCCAUGUCUGAACUGAAGGAGCGCUAAACAAGGCAGGUAGGUCGCGGAAUUUUGUGUGCAUAUGCAUAUGGG [9.J]", "apparent KD of MS2 coat protein": 0.0247}
{"sequence": "CGACGAUACCUGGAUACCAGCGACAUGAGGAUCACCCAUGUAUGUGGAUCAGCCAUGAUAUGCCCUUGGCAGCCACCAAAGUCGG [IIIMULLIN]", "apparent KD of MS2 coat protein": 0.0143}
{"sequence": "GACAUGAGGAUCACCCAUGUACCGCGAGAAGGAGCGCGGAUAAACGCAGGUAGGUCGCUCGUGGGCUUGUAUUCAAUCGUAAGCU [Anlaaranan]", "apparent KD of MS2 coat protein": 0.0807}
{"sequence": "UUUACAUGAGGAUCACCCAUGUGCCAUGAUACCAGACAUGAAAAUGUCCCUUGGCAGCAUGAAAGAUCCACGUCGGAAACGACGG [Krpole]", "apparent KD of MS2 coat protein": 0.113}
{"sequence": "UCCUCCUCCGCAAGGAGGAGGAGUUGCGAUACCAGCACGGAAACGUGCCCUUGGCAGCGCACAUGAGGAUCACCCAUGUCAUGUU [#1 Exclusion - Theophylline A Attempt #9 (HarryS)]", "apparent KD of MS2 coat protein": 0.0163}
{"sequence": "CUCCGAGGCUAUACUAUACGCCUUUGUGAUACCAGAAUAAAUAUAUUCCCUUGGCAGCAUCACAUGAGGAUCACCCAUGUGCCAU [SSTheo A #12]", "apparent KD of MS2 coat protein": 0.0124}
{"sequence": "CCUGCGUUUCUUUUCUUUCGCAGGAAUGAUACCAGUAGGGAAACCUACCCUUGGCAGCAUGGGACAUGAGGAUCACCCAUGUAAU [SSThA NP+V+V2 #2]", "apparent KD of MS2 coat protein": 0.408}
{"sequence": "CGCAACCCUAAGGGAUUGUGGUUAUUAGAUACCAGUAUGAUGCAAUACCCUUGGCAGCUAAUACAUGAGGAUCACCCAUGUUGCG [Th A Ex t2]", "apparent KD of MS2 coat protein": 0.0168}
